We go through 1 molecule from US20250242041A1 (Seagen, published 2025).

In this assay the target is T1, cyno αvβ6 on 293F:cynoβ6 cells (human;Macaca fascicularis, UniProt P06756 31-1048; A0A2K5TZ36 22-787).
T1 chain 1: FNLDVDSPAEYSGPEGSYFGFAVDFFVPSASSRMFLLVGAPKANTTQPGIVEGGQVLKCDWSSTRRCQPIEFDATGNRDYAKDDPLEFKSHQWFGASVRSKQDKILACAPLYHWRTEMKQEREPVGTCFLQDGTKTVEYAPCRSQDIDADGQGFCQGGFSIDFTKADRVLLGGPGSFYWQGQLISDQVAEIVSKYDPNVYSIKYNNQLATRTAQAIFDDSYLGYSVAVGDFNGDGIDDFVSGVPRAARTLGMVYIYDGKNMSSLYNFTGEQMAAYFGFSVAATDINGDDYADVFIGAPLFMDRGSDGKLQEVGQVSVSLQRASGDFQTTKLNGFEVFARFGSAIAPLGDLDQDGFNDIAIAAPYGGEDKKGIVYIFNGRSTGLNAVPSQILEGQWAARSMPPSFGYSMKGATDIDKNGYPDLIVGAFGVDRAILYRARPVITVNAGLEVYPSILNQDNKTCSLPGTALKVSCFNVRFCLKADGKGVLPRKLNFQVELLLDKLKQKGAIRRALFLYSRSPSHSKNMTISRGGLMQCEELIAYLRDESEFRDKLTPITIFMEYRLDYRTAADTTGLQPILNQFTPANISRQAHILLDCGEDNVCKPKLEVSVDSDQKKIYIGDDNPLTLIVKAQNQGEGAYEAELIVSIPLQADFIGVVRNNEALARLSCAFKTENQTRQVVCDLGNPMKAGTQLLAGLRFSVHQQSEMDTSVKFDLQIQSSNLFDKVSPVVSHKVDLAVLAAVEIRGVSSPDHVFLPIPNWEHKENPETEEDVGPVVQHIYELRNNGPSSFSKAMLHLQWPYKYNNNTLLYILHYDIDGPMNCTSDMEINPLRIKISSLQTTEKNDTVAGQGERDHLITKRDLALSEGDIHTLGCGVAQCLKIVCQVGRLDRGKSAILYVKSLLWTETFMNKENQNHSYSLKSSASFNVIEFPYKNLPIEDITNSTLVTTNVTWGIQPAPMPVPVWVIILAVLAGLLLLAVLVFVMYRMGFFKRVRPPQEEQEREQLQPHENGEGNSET
T1 chain 2: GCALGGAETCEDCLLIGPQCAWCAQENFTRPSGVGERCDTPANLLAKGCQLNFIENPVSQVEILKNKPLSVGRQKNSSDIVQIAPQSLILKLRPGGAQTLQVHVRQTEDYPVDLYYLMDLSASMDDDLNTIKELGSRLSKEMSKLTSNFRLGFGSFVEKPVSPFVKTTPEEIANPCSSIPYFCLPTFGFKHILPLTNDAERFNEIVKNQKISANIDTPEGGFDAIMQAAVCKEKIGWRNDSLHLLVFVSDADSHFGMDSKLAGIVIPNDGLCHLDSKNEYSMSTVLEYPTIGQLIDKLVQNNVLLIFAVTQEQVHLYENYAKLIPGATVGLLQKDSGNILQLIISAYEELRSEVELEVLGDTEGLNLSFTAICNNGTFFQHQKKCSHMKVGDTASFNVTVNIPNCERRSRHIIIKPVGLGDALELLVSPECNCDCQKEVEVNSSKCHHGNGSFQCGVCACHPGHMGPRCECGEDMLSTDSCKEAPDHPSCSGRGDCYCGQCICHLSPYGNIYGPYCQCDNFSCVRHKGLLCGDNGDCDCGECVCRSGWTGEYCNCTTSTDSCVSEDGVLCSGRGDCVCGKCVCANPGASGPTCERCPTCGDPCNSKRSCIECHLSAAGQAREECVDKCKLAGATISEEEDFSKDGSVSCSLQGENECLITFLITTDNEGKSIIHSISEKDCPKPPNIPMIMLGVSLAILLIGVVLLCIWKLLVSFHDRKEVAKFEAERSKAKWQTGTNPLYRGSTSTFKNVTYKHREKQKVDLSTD
Description: competition binding on 293F cells.

Usually EC50 stands for the concentration that produces a half-maximal response. A high value points to a less potent agent.

B1: h2A2 HCLG humanized antibody (antibody, human IgG1, kappa, V domains shown)
VH: QFQLVQSGAEVKKPGASVKVSCKASGYSFTDYNVNWVRQAPGQGLEWIGVINPKYGTTRYNQKFKGRATLTVDKSTSTAYMELSSLRSEDTAVYYCTRGLNAWDYWGQGTLVTVSS
VL: DIQMTQSPSSLSASVGDRVTITCGASENIYGALNWYQQKPGKAPKLLIYGATNLEDGVPSRFSGSGSGRDYTFTISSLQPEDIATYYCQNVLTTPYTFGQGTKLEIKR
notes: Labelled with AlexaFluor-647 in the saturation assay; also called humanized 2A2 HCLG
As for B1, the EC50 turned out to be 3 nM.
